Key:
[1] = Heparin affinity chromatography (NaCl elution from immobilized heparin); format: binding; settings: partially purified sample, 0.2-2M NaCl gradient, pH 7.5
Text: Heparin affinity chromatography has been used extensively for purifying and characterizing a variety of these growth factors. Acidic FGF (aFGF) and basic FGF (bFGF) bind to immobilized heparin columns and are eluted with 1.0M to 1.2M NaCl and 1.5M to 1.8M NaCl, respectively (Folkman and Klagsbrun, 235 Science 442, 1987; Lobb et al., 261 J. Biol. Chem. 1924, 1986). Several growth factors which are structurally homologous to aFGF and bFGF also have an affinity for heparin (see, for example, Rubin et al., 86 Proc. Natl. Acad. Sci. USA 802, 1989). PDGF binds to immobilized heparin, but with relatively low affinity, being eluted with only 0.5M NaCl. […] Lobb et al. (261 J. Biol. Chem. 1924, 1986) report the partial purification by heparin affinity of two classes of growth factors mitogenic for endothelial cells. Gospodarowicz et al. (81 Proc. Natl. Acad. Sci. USA 6963, 1984) report the use of heparin affinity in the purification of bovine brain and pituitary fibroblast growth factors. Shing et al. (29 J. Cell Biochem. 275, 1985) report a chondrosarcoma-derived growth factor purified by heparin-Sepharose affinity chromatography and Bio Rex 70 cation exchange chromatography. […]
HB-EHM was purified as follows. Growth factor activity was monitored during the purification procedures using BALB/c mouse 3T3 cells as target cells and measuring [^3 H]-thymidine incorporation into DNA. […]

EGF receptor = EGF receptor autophosphorylation in A-431 cells (anti-phosphotyrosine Western blot); format: cell-based, human; settings: 5 ng/ml, 15 minutes
Method: This was shown by plating A-431 cells in 6-well plates and culturing in Dulbecco's Modified Eagle's Medium (DMEM) containing 10% fetal bovine serum and antibiotics. […] After 15 minutes, the cells were washed with ice-cold phosphate-buffered saline containing 0.4 mm EDTA, 10 mM Na-fluorate, 10 mM Na-pyrophosphate and 0.4 mM Na-orthovanadate, scraped and lysed in 100 μl of PI/RIPA buffer [1% NP-40 (Pierce, Rockford, Ill.), 1% deoxycholate (Aldrich, Milwaukee, Wis.), 0.1% SDS, 1% aprotinin (Boehringer-Mannheim, Indianapolis, Ind.), 1 mM PMSF (Pierce), 2 mM EDTA (Sigma), 10 mM Na-fluorate, (Sigma, St. Louis, Mo.), 10 mM Na-pyrophosphate (Baker, Phillipsburg, N.J.), 0.4 mM Na-orthovanadate, (Aldrich), 10 mM iodoacetamide (Aldrich) in phosphate buffered saline]. Thirty μl of supernatant clarified by spinning for a 5 minute period in a microfuge was analyzed by reducing SDS/polyacrylamide gel electrophoresis (6% polyacrylamide gel). […] A standard of phosphorylated EGF receptor was purchased from UBI (Lake Placid, N.Y.).

B1: HB-EHM: novel heparin binding growth factor with EGF-homologous segment, purified from U-937 lymphoma cell conditioned medium, about 22 kD (protein)
chain: RVTLSSKPQALATPNKEEHGKRKKKGKGLGKKRDPCLRKYKDFCIHGECKYVKELRAPSCICHPGYHGERCHGLS
modifications: O-linked glycosylation (suggested by O-glycanase treatment; the threonines predicted at positions 2 and 12 of the form first sequenced were not detected in protein sequencing)
[1]
  NaCl concentration eluting from the TSK-heparin column: 1 to 1.2 M
EGF receptor
  autophosphorylation of the EGF receptor (170 kDa protein): triggered autophosphorylation
